{"source": "paper PMC6479699", "about": "“Structural and Functional Characterization of the Human Thymidylate Synthase (hTS) Interface Variant R175C, New Perspectives for the Development of hTS Inhibitors” (Molecules, 2019)", "target": "the molecule itself", "assay": "SEC; HiLoad 16/600 Superdex 75pg column, last purification step; sample dialysed in buffer A (50 mM Tris pH 6.9, 300 mM KCl) beforehand", "data": [{"protein": "His6-tag human thymidylate synthase variant R175C (enzyme, UniProt P04818 1-313, looked up, Cys195 oxidized to S-oxy-cysteine (CSX195) in all subunits of the crystal structure, human thymidylate synthase (hTS, EC 2.1.1.45); Arg175 replaced by cysteine; In the crystal the chains were traced apart from the first 22-23 N-terminal residues and the C-terminal valine; also called HT-hTS R175C; hTS R175C; not shown: His6, N-terminal, kept) MPVAGSELPRRPLPPAAQERDAEPRPPHGELQYLGQIQHILRCGVRKDDRTGTGTLSVFGMQARYSLRDEFPLLTTKRVFWKGVLEELLWFIKGSTNAKELSSKGVKIWDANGSRDFLDSLGFSTREEGDLGPVYGFQWRHFGAEYRDMESDYSGQGVDQLQRVIDTIKTNPDDCRIIMCAWNPRDLPLMALPPCHALCQFYVVNSELSCQLYQRSGDMGLGVPFNIASYALLTYMIAHITGLKPGDFIHTLGDAHIYLNHIEPLKIQLQREPRPFPKLRILRKVEKIDDFKAEDFQIEGYNPHPTIKMEMAV", "values": [{"measurement": "stoichiometry N", "value": 2}]}]}
